# Results reported in patent US9878137B2, “Bioactive agent delivery devices and methods of making and using the same” (The Regents of the University of California, priority 2012, dated 2018).
# Assay: In vitro drug permeation studies across caco-2 monolayer on Transwell inserts
# Assay type: in vitro ADME, Human
# Details: PEGDMA 15% Texas red-BSA, 30% FITC-BSA, 45% DNP-BSA reservoirs of same device; FIG. 6
# Procedure: In vitro drug permeation studies. The drug loaded microdevices were released within 2 min from the wafers using 8 M potassium hydroxide (KOH) solution that was preheated to 40° C. The released microdevices being less dense than water was ultracentrifuged (30 kDa Amicon ultra centrifugal filters) and washed with PBS twice for release and permeation studies. Human colorectal adenocarcinoma epithelial cells (caco-2 ATCC) were grown to confluency (transepithelial electrical resistance plateau at 900-1000Ω) on 50% collagen-ethanol (Type 1, Becton Dickinson, Franklin Lakes, N.J.) treated 24-well Transwell® inserts. The caco-2 cells were maintained in Modified Eagle's Media (MEM) with 20% fetal bovine serum (Invitrogen), 2 mM L-glutamine, 1.5 g/L sodium bicarbonate, 2.5 g/L glucose, 10 mM HEPES buffer, 1.0 mM sodium pyruvate, and 1 mg/mL penicillin/streptomycin for 5 days or more prior to seeding. […] Discrete time (20 min) samples were taken from both the upper and lower chamber of the Transwell® for the different drug loaded systems and observed for fluorescence using a Packard Fluorocount Microplate Fluorometer (Meriden, Conn.).
# To measure the drug elution kinetics of the various microdevices, release of the different fluorophore tagged BSAs were monitored, in vitro, from hydrogel laden microdevices. […]
row,Substance,relative release rate at different crosslinking ratio
1,"FITC-BSA: fluorescently labeled bovine serum albumin, model fluorophore-drug",released faster than DNP-BSA
2,"Texas red-BSA: fluorescently labeled bovine serum albumin, model fluorophore-drug",released faster than FITC-BSA
